What was measured:
[1] = target: the molecule itself; assay: SEC-MALS; purified DnaD variants, size exclusion chromatography followed by multiple angle light scattering
[2] = target: the molecule itself; assay: cross-linking; amine-specific BS^3, SDS-PAGE, immunoblot

Row | Protein | stoichiometry N [1] | stoichiometry N [2]
1 | DnaD, wild type, purified (natural protein, B. subtilis, UniProt P39787 1-232, looked up, DnaD, Bacillus subtilis, the full-length protein; tetramer of about 113 kDa by SEC-MALS (theoretical 110 kDa); also called wild-type DnaD; wild-type tetrameric DnaD) MKKQQFIDMQEQGTSTIPNLLLTHYKQLGLNETELILLLKIKMHLEKGSYFPTPNQLQEGMSISVEECTNRLRMFIQKGFLFIEECEDQNGIKFEKYSLQPLWGKLYEYIQLAQNQTQERKAEGEQKSLYTIFEEEFARPLSPLECETLAIWQDQDQHDAQLIKHALKEAVLSGKLSFRYIDRILFEWKKNGLKTVEQAKIHSQKFRRVQAKQNEPQKEYKRQVPFYNWLEQ | 4 | 
2 | DnaD^F6A, purified (natural protein, B. subtilis, UniProt P39787 1-232, looked up, DnaD, Bacillus subtilis, with F6A; eluted as a 57 kDa species (dimer); The measured mass fits the whole protein) MKKQQAIDMQEQGTSTIPNLLLTHYKQLGLNETELILLLKIKMHLEKGSYFPTPNQLQEGMSISVEECTNRLRMFIQKGFLFIEECEDQNGIKFEKYSLQPLWGKLYEYIQLAQNQTQERKAEGEQKSLYTIFEEEFARPLSPLECETLAIWQDQDQHDAQLIKHALKEAVLSGKLSFRYIDRILFEWKKNGLKTVEQAKIHSQKFRRVQAKQNEPQKEYKRQVPFYNWLEQ | 2 | 
3 | DnaD^K3A (natural protein, B. subtilis, UniProt P39787 1-232, looked up, DnaD, Bacillus subtilis, with K3A, used in BS^3 cross-linking) MKAQQFIDMQEQGTSTIPNLLLTHYKQLGLNETELILLLKIKMHLEKGSYFPTPNQLQEGMSISVEECTNRLRMFIQKGFLFIEECEDQNGIKFEKYSLQPLWGKLYEYIQLAQNQTQERKAEGEQKSLYTIFEEEFARPLSPLECETLAIWQDQDQHDAQLIKHALKEAVLSGKLSFRYIDRILFEWKKNGLKTVEQAKIHSQKFRRVQAKQNEPQKEYKRQVPFYNWLEQ |  | 2
4 | DnaD^1-205, purified (domain or fragment, B. subtilis, UniProt P39787 1-205, looked up, also called DnaD variant lacking the C-terminal tail) MKKQQFIDMQEQGTSTIPNLLLTHYKQLGLNETELILLLKIKMHLEKGSYFPTPNQLQEGMSISVEECTNRLRMFIQKGFLFIEECEDQNGIKFEKYSLQPLWGKLYEYIQLAQNQTQERKAEGEQKSLYTIFEEEFARPLSPLECETLAIWQDQDQHDAQLIKHALKEAVLSGKLSFRYIDRILFEWKKNGLKTVEQAKIHSQK | 4 | 

From article doi:10.1101/2021.08.16.456468, “Positive and negative control of helicase recruitment at a bacterial chromosome origin” (bioRxiv, 2021)
